Data reported in patent publication US20220112288A1 (published 2022).
Numbering of substitutions follows the chain as printed. One block for each binder: values may come before it.

Experiments:
[1] = molecular target: T1, human CD4 on the surface of SKW3 cells or human PBMCs (human, UniProt P01730 26-458); assay: FACS confirmation, supernatant on human PBMCs, anti-mouse Fc A647
T1 construct: whole, on cells; SKW3 CD4 knockout cells served as the negative cell line; also called hCD4; SKW3 WT

[2] = molecular target: T1, human CD4 on the surface of SKW3 cells …; assay: FACS confirmation, supernatant on human PBMCs, anti-mouse Fc A647, CD4+ gate
Procedure: (§1) FACS Confirmation screens were performed for primary screening positive hybridomas using human PBMCs in addition to SKW3/SKW3 CD4 KO cell lines. PBMCs were thawed and resuspended to 8E6/mL in FACS buffer. […] PBMCs were added to the 96 well plates (25 μL/well) and incubated at 4° C. for 30 minutes. […] Cells were washed twice before acquired by IQUE3 Flow Cytometer and analyzed with FORECYT software (Sartorius). Primary parameter used to assess confirmation was CD4 positive percent of viable cells. […] SKW3 gMFI binding was used as secondary parameter to assess confirmation.

[3] = molecular target: T1, human CD4 on the surface of SKW3 cells …; assay: FACS confirmation, supernatant on SKW3 WT cells, anti-mouse Fc A647; background gMFI 3300
Procedure: as §1

[4] = molecular target: T1, human CD4 on the surface of SKW3 cells …; assay: FACS confirmation, supernatant on SKW3 WT cells, anti-human kappa FITC; background gMFI 2500
[5] = molecular target: T1, human CD4 on the surface of SKW3 cells …; assay: FACS primary screen, non-clonal hybridoma supernatant, SKW3 vs SKW3 CD4 KO cells, anti-mouse Fc A647
Procedure: (§2) FACS cell binding. αCD4 antibody producing hybridomas were identified by cell surface CD4 binding using FACS. For primary screening SKW3 (human T-ALL) was used as the CD4 positive cell line and SKW3 CD4 knockout (KO) as the negative cell line, respectively. SKW3 KO cells were labeled with Tag-it Violet (BioLegend) at RT for 15 min. After removing extra dye by washing cells with FACS buffer (1% BSA/1 mM EDTA/0.05% NaN3 in PBS) equal number of SKW3 and labeled SKW3 CD4 KO cells were combined, washed, and resuspended in FACS buffer at 8E6 cells/6 mL. […] Cells (˜20K/15 μL/well) were added to the supernatant and incubated at 4° C. for 30 minutes. […] Cells were washed twice before acquired by IQUE3 Flow Cytometer and analyzed with FORECYT software (Sartorius). Positive wells were selected with the following criteria: Over 2-fold selective binding to SKW3 cell line relative to SKW3 CD4 KO with over 10% signal above background binding with anti-human Kappa. Hybridomas from primary screening positive wells were transferred to 96 well plates.

[6] = molecular target: T1, human CD4 on the surface of SKW3 cells …; assay: FACS primary screen, non-clonal hybridoma supernatant, SKW3 vs SKW3 CD4 KO cells, anti-human kappa FITC
Procedure: as §2

[7] = molecular target: T1, human CD4 on the surface of SKW3 cells …; assay: FACS binning on SKW3 cells; competitor OKT4-Alexa Fluor 488 (its signal read); background 2163, max binding 8200
Procedure: (§3) αCD4 containing hybridoma supernatants were binned against three comparator antibodies by FACS using SKW3 cells, which endogenously express human CD4 protein. Briefly, SKW3 cells were incubated with saturated hybridoma supernatant for 30 minutes at 4° C.

[8] = molecular target: T1, human CD4 on the surface of SKW3 cells …; assay: FACS binning on SKW3 cells; competitor RPA-T4-PE-Dazzle 594 (its signal read); background 783, max binding 15000
Procedure: as §3

[9] = molecular target: T2, huCD4-HIS (human, UniProt P01730 26-390, limits assumed); assay: ELISA binning; competitor ibalizumab; 100 ng/mL huCD4-HIS, anti-HIS HRP detection; background 45, max binding 3000000
T2 construct: not shown: HIS tag

[10] = molecular target: T1, human CD4 on the surface of SKW3 cells …; assay: FACS binning on SKW3 cells; competitor OKT4a, anti-human A647 secondary (its signal read); background 5000, max binding 35000
Procedure: as §3

B1: 75110_04K10A (antibody, V domains shown)
VH: EVQLVESGGGLVQPGGSLRLSCAASGFTFSSYWMSWVRQAPGKGLEWVANINQDGSEKYYVDSVKGRFTISRDNAKNSLYLQLNSLRAEDTAMYYCAREGGQWLSLDYWGQGTLVTVSS
VL: DIQMTQSPSSVSASVGDRVTITCRASQGISSWLAWYQQKPGKAPKVLIYGVSSFQSGVPSRFSGSGSGTDFILTISSLQPEDFATYYCQQANSFPWTFGQGTKVEIK
notes: Tested here as non-clonal hybridoma supernatant from AlivaMab Mouse Kappa mice (detected with anti-mouse Fc and anti-human kappa)
PBMCs, anti-mFc 647 CD4+ Percent Bound of Viable [1]: 33%
PBMCs, anti-mFc 647 CD4+ gate - RL1 Binding [2]: 346000
SKW3 WT anti-mFc 647, gMFI [3]: 36700 gMFI
SKW3 WT anti-hu Kappa FITC, gMFI [4]: 6710 gMFI
SKW3 WT vs KO anti-mFc-647 [5]: 5 ratio
SKW3 WT vs KO anti-hKappa-FITC [6]: 1.5 ratio
OKT4 A488 signal [7]: 2760
RPA-T4-PE-Dazzle 594 signal [8]: 9800
Ibalizumab ELISA binning signal [9]: 1.13e+06
OKT4a anti-hu A647 Secondary signal [10]: 43100

B3: 75110_03C01A (antibody, V domains shown)
VH: QVQLQQWGAGLLKPSETLSLTCAVYGGSFSGYYWSWIRQSPGKGLEWIGEINQSGSTNYNPSLKSRVTISVDTSKDQFSLKLSSVTAADTAVYYCARVINWFDSWGQGSLVTVSS
VL: B1 VL with K42N, V46L, G50D, V51A, I72T, P80T, W96Y, V104L
notes: as for B1
PBMCs, anti-mFc 647 CD4+ Percent Bound of Viable [1]: 28%
PBMCs, anti-mFc 647 CD4+ gate - RL1 Binding [2]: 266000
SKW3 WT anti-mFc 647, gMFI [3]: 18700 gMFI
SKW3 WT anti-hu Kappa FITC, gMFI [4]: 5920 gMFI
SKW3 WT vs KO anti-mFc-647 [5]: 8 ratio
SKW3 WT vs KO anti-hKappa-FITC [6]: 2.4 ratio
OKT4 A488 signal [7]: 9510
RPA-T4-PE-Dazzle 594 signal [8]: 19200
Ibalizumab ELISA binning signal [9]: 865000
OKT4a anti-hu A647 Secondary signal [10]: 6980

B4: 75110_01J09A (antibody, V domains shown)
VH: B1 VH with A23V, I51T, N52K, Q53E, E57D, S71C, L83M, M93V, S105A
VL: DIQMTQSPSSVSASVGDRVTINCRASQGISSWLAWYQQKPGKAPNLLIFGASSLQSGVPSRFSGSGFGTDFSLTITTLQPEDFATYHCQQANSFPWTFGQGTKVEIK
notes: as for B1
PBMCs, anti-mFc 647 CD4+ Percent Bound of Viable [1]: 31%
PBMCs, anti-mFc 647 CD4+ gate - RL1 Binding [2]: 321000
SKW3 WT anti-mFc 647, gMFI [3]: 32300 gMFI
SKW3 WT anti-hu Kappa FITC, gMFI [4]: 5930 gMFI
SKW3 WT vs KO anti-mFc-647 [5]: 7.5 ratio
SKW3 WT vs KO anti-hKappa-FITC [6]: 2.4 ratio
OKT4 A488 signal [7]: 2140
RPA-T4-PE-Dazzle 594 signal [8]: 14700
Ibalizumab ELISA binning signal [9]: 1.26e+06
OKT4a anti-hu A647 Secondary signal [10]: 43700

Further lines, with some results ahead:

PBMCs, anti-mFc 647 CD4+ gate - RL1 Binding [2]: 181000
SKW3 WT anti-mFc 647, gMFI [3]: 16300 gMFI
SKW3 WT anti-hu Kappa FITC, gMFI [4]: 5130 gMFI
SKW3 WT vs KO anti-mFc-647 [5]: 3.9 ratio
SKW3 WT vs KO anti-hKappa-FITC [6]: 1.5 ratio
OKT4 A488 signal [7]: 3120
RPA-T4-PE-Dazzle 594 signal [8]: 15900
Ibalizumab ELISA binning signal [9]: 2.57e+06
OKT4a anti-hu A647 Secondary signal [10]: 37400
B2: 75110_05L07A (antibody, V domains shown)
VH: B1 VH with E57D, A75V, L83I, M93V, S105T
VL: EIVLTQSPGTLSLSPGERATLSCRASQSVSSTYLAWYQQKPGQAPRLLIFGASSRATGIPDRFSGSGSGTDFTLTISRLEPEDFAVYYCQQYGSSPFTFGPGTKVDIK
notes: as for B1
PBMCs, anti-mFc 647 CD4+ Percent Bound of Viable [1]: 29%

PBMCs, anti-mFc 647 CD4+ gate - RL1 Binding [2]: 287000
SKW3 WT anti-mFc 647, gMFI [3]: 24800 gMFI
SKW3 WT anti-hu Kappa FITC, gMFI [4]: 5880 gMFI
SKW3 WT vs KO anti-mFc-647 [5]: 5.4 ratio
SKW3 WT vs KO anti-hKappa-FITC [6]: 2.2 ratio
OKT4 A488 signal [7]: 2700
RPA-T4-PE-Dazzle 594 signal [8]: 14700
Ibalizumab ELISA binning signal [9]: 1.76e+06
OKT4a anti-hu A647 Secondary signal [10]: 46600
B5: 75110_09N20A (antibody, V domains shown)
VH: B1 VH with Q53E, L83M, M93V, A97V, S105A
VL: B1 VL with V46L, G50A, V51A, F54L, R61S, I72T, S76N, E105A
notes: as for B1
PBMCs, anti-mFc 647 CD4+ Percent Bound of Viable [1]: 33%

PBMCs, anti-mFc 647 CD4+ gate - RL1 Binding [2]: 304000
SKW3 WT anti-mFc 647, gMFI [3]: 22300 gMFI
SKW3 WT anti-hu Kappa FITC, gMFI [4]: 5810 gMFI
SKW3 WT vs KO anti-mFc-647 [5]: 4.8 ratio
SKW3 WT vs KO anti-hKappa-FITC [6]: 2 ratio
OKT4 A488 signal [7]: 2990
RPA-T4-PE-Dazzle 594 signal [8]: 14800
Ibalizumab ELISA binning signal [9]: 1.99e+06
OKT4a anti-hu A647 Secondary signal [10]: 44600
B6: 75110_09G15A (antibody, V domains shown)
VH: B1 VH with S31D, Y60S, L83M, M93I, Y94F, S105A
VL: B1 VL with V46L, V51A, F54L, I72T, S76N, A84T, S93I
notes: as for B1
PBMCs, anti-mFc 647 CD4+ Percent Bound of Viable [1]: 28%
